From the Human Domainome abundance scans (Beltran et al. 2025)
± gives the uncertainty stated by the source.

B1: Zinc finger homeobox protein 4, residues 2183 to 2238; numbered along this chain, Q86UP3 (parent)
chain: SSRTRFTDYQLRVLQDFFDTNAYPKDDEIEQLSTVLNLPTRVIVVWFQNARQKARK

Variants of: B1
Assay: abundance fitness (aPCA) (normalised: wild type 0, dead -1); higher = more abundant; growth selection in yeast, the domain comes from the species named
Settings: Homo sapiens

Variant | abundance fitness
V42P | -0.194 ± 0.16
V42Q | -0.143 ± 0.14
V42R | -0.2 ± 0.091
V42S | -0.077 ± 0.12
V42T | 0.043 ± 0.15
V42W | -0.039 ± 0.12
V42Y | -0.18 ± 0.21
I43A | -0.259 ± 0.12
I43C | -0.193 ± 0.37
I43D | -0.881 ± 0.29
I43E | -0.69 ± 0.16
I43F | -0.412 ± 0.23
I43G | -1.01 ± 0.15
I43H | -1.18 ± 0.29
I43K | -1.22 ± 0.26
I43L | -0.059 ± 0.1
I43M | -0.394 ± 0.16
I43N | -1.01 ± 0.31
I43P | -0.869 ± 0.29
I43Q | -0.964 ± 0.24
I43R | -1 ± 0.13
I43S | -0.766 ± 0.16
I43T | 0.032 ± 0.13
I43V | -0.12 ± 0.11

Variant | abundance fitness
I43W | -1.07 ± 0.24
V44A | -0.067 ± 0.077
V44C | 0.028 ± 0.1
V44D | -0.064 ± 0.11
V44E | 0.125 ± 0.13
V44G | -0.059 ± 0.096
V44H | -0.027 ± 0.078
V44I | 0.05 ± 0.079
V44K | -0.22 ± 0.11
V44L | 0.042 ± 0.068
V44M | -0.136 ± 0.1
V44N | 0.002 ± 0.082
V44P | -0.356 ± 0.075
V44Q | -0.052 ± 0.089
V44R | -0.099 ± 0.081
V44S | 0.008 ± 0.07
V44T | -0.094 ± 0.07
V44W | -0.253 ± 0.12
V44Y | -0.223 ± 0.093
V45A | -0.09 ± 0.11
V45D | 0.528 ± 0.19
V45E | -0.049 ± 0.19
V45G | 0.047 ± 0.1
V45H | -0.298 ± 0.34

Variant | abundance fitness
V45I | -0.175 ± 0.12
V45K | -0.26 ± 0.16
V45L | 0.007 ± 0.1
V45N | -0.402 ± 0.44
V45P | -0.245 ± 0.2
V45Q | -0.242 ± 0.19
V45R | -0.335 ± 0.11
V45S | 0.072 ± 0.15
V45Y | -0.149 ± 0.28
W46A | -0.669 ± 0.19
W46C | -0.366 ± 0.21
W46E | -0.396 ± 0.27
W46G | -0.559 ± 0.16
W46L | -0.691 ± 0.17
W46M | -0.864 ± 0.3
W46P | -0.656 ± 0.36
W46R | -0.344 ± 0.11
W46S | -0.403 ± 0.17
W46T | -0.972 ± 0.48
W46V | -0.803 ± 0.18
F47A | -0.406 ± 0.12
F47C | -0.471 ± 0.18
F47D | -0.4 ± 0.24
F47E | -0.967 ± 0.16

Variant | abundance fitness
F47G | -0.342 ± 0.09
F47H | -0.6 ± 0.47
F47I | 0.044 ± 0.4
F47K | -0.694 ± 0.2
F47L | -0.016 ± 0.092
F47M | -0.334 ± 0.15
F47N | -0.778 ± 0.41
F47P | -1.06 ± 0.32
F47Q | -0.829 ± 0.22
F47R | -0.801 ± 0.12
F47S | -0.507 ± 0.12
F47T | -0.893 ± 0.29
F47V | -0.264 ± 0.11
F47W | -0.452 ± 0.14
F47Y | -0.207 ± 0.28
Q48A | 0.017 ± 0.19
Q48C | -0.051 ± 0.23
Q48D | -0.021 ± 0.15
Q48E | -0.134 ± 0.19
Q48G | -0.177 ± 0.1
Q48H | -0.418 ± 0.26
Q48I | -0.281 ± 0.29
Q48K | -0.434 ± 0.23
Q48L | -0.441 ± 0.2

Variant | abundance fitness
Q48M | -0.278 ± 0.19
Q48N | -0.132 ± 0.18
Q48P | -1.11 ± 0.3
Q48R | -0.106 ± 0.1
Q48S | -0.161 ± 0.12
Q48T | -0.082 ± 0.23
Q48V | -0.061 ± 0.17
Q48W | -0.262 ± 0.18
N49A | -0.418 ± 0.12
N49C | -0.252 ± 0.14
N49D | 0.108 ± 0.17
N49E | 0.032 ± 0.15
N49F | 0.005 ± 0.27
N49G | -0.011 ± 0.084
N49H | -0.077 ± 0.14
N49I | -0.127 ± 0.16
N49K | -0.153 ± 0.18
N49L | -0.17 ± 0.1
N49M | -0.168 ± 0.14
N49P | -0.862 ± 0.22
N49Q | -0.355 ± 0.19
N49T | 0.073 ± 0.14
N49V | -0.261 ± 0.11
N49W | -0.352 ± 0.12

Variant | abundance fitness
N49Y | -0.246 ± 0.19
A50C | 0.045 ± 0.14
A50D | -0.57 ± 0.41
A50E | -0.116 ± 0.15
A50F | -0.054 ± 0.28
A50H | -0.394 ± 0.34
A50I | -0.396 ± 0.41
A50K | -0.347 ± 0.2
A50L | -0.256 ± 0.12
A50N | -0.033 ± 0.22
A50P | -0.87 ± 0.29
A50Q | -0.113 ± 0.18
A50R | -0.155 ± 0.086
A50T | -0.087 ± 0.19
A50V | -0.044 ± 0.12
R51A | -0.24 ± 0.13
R51C | -0.128 ± 0.24
R51D | -0.304 ± 0.26
R51E | -0.144 ± 0.27
R51F | -0.221 ± 0.23
R51G | -0.317 ± 0.1
R51H | -0.462 ± 0.25
R51I | -0.235 ± 0.2
R51K | 0.035 ± 0.26

Variant | abundance fitness
R51M | -0.219 ± 0.23
R51N | -0.488 ± 0.34
R51P | -0.898 ± 0.24
R51Q | -0.251 ± 0.24
R51T | -0.608 ± 0.24
R51V | -0.043 ± 0.13
R51W | -0.194 ± 0.13
R51Y | -0.175 ± 0.31
Q52A | -0.418 ± 0.24
Q52E | 0.068 ± 0.32
Q52H | -0.015 ± 0.23
Q52L | -0.121 ± 0.11
Q52M | -0.308 ± 0.39
Q52N | -0.166 ± 0.2
Q52P | -0.049 ± 0.15
Q52R | -0.401 ± 0.19
Q52S | -0.275 ± 0.16
Q52T | 0.011 ± 0.14
Q52V | 0.026 ± 0.19
Q52Y | -0.256 ± 0.28
K53A | 0.145 ± 0.099
K53C | 0.11 ± 0.13
K53D | 0.109 ± 0.16
